Assay: label from the status in PepcDB records
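Further: failed if final PepcDB status was selected cloned or expressed and not failed if soluble or beyond.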

Sequence | protein production
MLWFAMSSVLRVRPTKIELIRLKRRKALAEKVHRILRERLTILVNEFLVRVREAYSLRRTVNDLVFNLYNDSVLLNSVYGEYGFQYFRSITVEGLRAVIGVENIMGVKTRSAVVKHSKTIEYVYPGFDSFRDGARKLIEAIIELGRAEQALIALGREIERTKRKVNALKYIIIPRLANTIRYLNMKFEEREREEKARLKRIKSVLEKRR | failed
MLWFGQPGPGGWNRKCLRPFTLPRGQHPQPSYGFPQVNEVVFSPGESHCATCSEDGSVRVWALASMELVIQFQVLNQSCLCLAWSPPCCGRPEQQRLAAGYGDGSLRIFSVSRTAMELKMHPHPVALTTVAFSTDGQTVLSGDKDGLVAVSHPCTGTTFRVLSDHQGAPISTICVTCKETQGHLPPSLAAFCPWDGALLMYVGPGVYKEVIIYNLCQKQVVEKIPLPFFAMSLSLSPGTHLLAVGFAECMLRLVDCAMGTAQDFAGHDNAVHLCRFTPSARLLFTAARNEILVWEVPGL | failed
MLWSFIAVCFSAWLYVDASYRGPAWRRWVFKPVTLILLLLLAWQAPMFNAISYLVLAGLCASLLGDALTLLPRQRVMYAVGAFFLSHLLYTIWFASQLTLSFFWPLPLVLLVFGALLMAVIWSRLEEMKMPVLTFIGMTLVMVWLAGELWFARPTNTALSGFAGAALLLLSNAVWLVSHYRRRFRADNAIAAAFYFAGHFLIVRALYL | failed
MLYFIPTPIGNLSDISFRALELLKTCDLVFCEDTRVSKSLISLLNTKFHTDIHISKFIALHSHNEKEVLASIDLKIFEKNVAYLSDAGMPGISDPGKALVEFAQENNITYEILPGA | not failed
MLYHKLGYVQSAQQTLREVMTIWQAWFKALKAYRKNPARFTGRPRMPRYLHKSQRHTFYVTNQNAQIVRKDEQDKGYLVIKKLGIKIKLASADIKKIGRVAFKPVANGYKVIVPYKTKQKIKYLPDNGKYLGIDPGIDNAFACVSNTGARPLLINGRGIKSVNQYYNKKRSELKRLQAKYHQLEKLISTKQGLKPVYQETKAMKRITAWRNDKIRQFAHKASKRIVDYALSCDANTIVIGKNKSWKRSFEMGKRNNQNFIGIPHQVMIDMIKYKANLAGITVIQTNESYTSQISALDHEQPCWNNGNKSRKKQRKSPVNRRIKRGLFKADNGTLINADINGALQIIKKVFPNFSLDDGIVGAVLRPFKWSPTI | failed
MLYIFLLPIIGLALAFIINKIFPRAQFRGYDVLPFFFIAACSLITLHINRPSFLPYGFLLYFILVIVVSLSDAIRNKNISLGKTIRKLWDYLAACTCFWYLGLLIMMFL | failed
MMAKLVVCIIDGMADPPPPAGGVTPLAAAHTPHCDTLARHSVAGLCHVIQPEAVPGSEAGLSALLCCEAAASIARGPVEALAQGDPVAPHETVWRLNLVSLGPRGNYYNPAPLLDAATETAARKMLDRALGTQGYSLLGGKGFRHLCAGTEPPVLRDGPQDVCGMTPDTGQADLNSYCPRLARAMTEANVLFRRSRMDLAVWPWGAGTMPDLPGFAETTGQTGALAGGVPLARGLALALGMTAPSIAGATGGIDTDLGAKTRAAIALAAGHDVVYLHVEAPDLHAHALDRVAKRRAIERIDAEVVGPLHMALPDATLLITCDHATDCATGRHMAIPVPFILHKPDGPQDGIATFSEAASARTGIRIDSAATLVRLALADLEHHHHHH | not failed
MMAQRSLFQCESSVDEELDRMEIRTLTRYGENRRRDKGVPIECDCNAKVVVVTSLDPVTTGKLFFSCPYEISDGPGQGCGFKRWWTVALCDEFDMIKEETTEMKKDLEAANKRVESLAEKIFLMEKKFETLEKKYESLNKYL | failed
MMAVESSKRLASETPVSLFIPYSHHITDTIISTKNAEYLSIWKIDGRSHQSASEEDIFQWARELNNTLRGIASANLSLWTHIVRRRVYEYPDSTFDKMFCYQLDEKYRQSFTGYNLMVNDLYLTVVFQPIADKVMSFFSQHERETLDQKKMRQESCIKALNDINRTLGQSFKRYGGELLGTYEKNGHAYSSALEFLAMLVNGEYSPMPICRDRFADYMSINRPFFSKWGALGELRTTSGIRRFGMMEIKEYDTTTKPGQFNVLLESDFEFVLTQSFSVLSRHAAKDYLQRHQRNLIDARDVATSQIEQIDEALNQLISGHFVMGEHHCTLTIYGDTVQQVRDYMAKANAALLEVAVLPKPVDLAIEAGYWAQLPANWKWRPRPAPITSLNFLSFSSFHNFMSGKPTGNPWGPAVTILKTISKTPLYFNFHASKLEEDATDKRLLGNTAIIGQSGSGKTVLLGFLLAQAQKFKPTTVVFDKDRGMEIAIRAMGGRYLTFKPGRQSGFNPFQLPPTQDNLTFLKQFVKKLAEASSEITHRDEEEINQAVMSIMSSNINPSLRRLSFLLQFLPNPHLNDYNSHPSVHTRLIKWCEGGDYGWLFDNPTDALDLSTHQIYGFDITEFLDNPETRTPVMMYLLYRTEGMISGQRFMYIFDEFWKPLQDPYFEDLAKNKQKTIRKQNGIFVFATQEPTDALESNIAKTLIQQCATYIFLANPKANYEDYTEGFKLTDAEFELIKGIGEFSRQFLIKQGDQSALAELNLGKFHVTIDGKTVEQNFSDELLVLSGTPDNAELVENIIAEVGDDPALWLPVFLQHIKTNRRTT | failed
MMDSHCRVRAPGAAQPADCPPPTTQHAALAARLGHARLHTLYDQATWSEGPAWWEAQRTLVWSDVVGRRVLGWREDGAVDVLLDATAFTNGNAVDTQQRLVHCEHGRRAITRSEVDGRAHLLVGRFEGKRLNSPNDLIVARDGAIWFTDPPFGLRKPSQGCPGPQELDHHGVYRLPPDGGALQCMVNLDHPNGLAFSPDERVLYVSQTPEGGPGAPEITALDWHDGALHNRRRFAVVPEGLPDGFCVDCQGWLWSSSGAGVCVFDSGGHVLGLVPTPHTASNCTFDLVQRRLFITGGSTLWLLDLQR | failed
MMDSVKNASENISRRLSRTWDHISDGWRELVHHGSDALTHFVHRKGEEDKGQEAAASTPAFPRWSILAGDMEETDREIVVRIEVPGMEKKDFEISIEGKTLSLRGEKRFERDTNDSKYHVMERAYGVFQRTLPLPVEVNEDKAEADYKNGVLTVRLPKLNVEKRRFISIS | failed
MMELIVAQAAASAAELPFLLLQAAAVVGMVSMLMLLQRHIAFDDVRYKIYYGVVFGATGFLLTLLVSEFIQLPSKPYIRSDLLFLAGVVGSWQGGLISLALISAGRFLFGGPALFGAAFLDMSVISAFGIAIYGWMRRRRLTELGMREIAGVFAIRIFAALFAICLTYGLGMVGQDVFLSNVGRRIVGATVGLPMIACLFLLLRSEARAREAVKKREVAARTDSLTGLPNRRALKDHIEMTTRQAPAVPHALLLIEIVNIADVAAYQGDDWADLFWPKLAREICDGENGLLSKFNDPRSFMFGDATLAVVIEGVSLEKSESAGLVLHLHEGLIAFFRSAEAGPVPHLKIGAANLEMVSHQNVASFLRHLSLALRRSENPVQIFPFSFAEKAARDEGVRQMLVRWIKNGKPPIFYQPKFEIHNRRMIGAEALLRAIDTHGQALSPYYVLEIAERHRLLVEFEWSTIEAVVRDLAELPGLDPDFHLAVNISASSFATACFADRVVALLQEMTVPAHRLSIEVTEMSRMPTTDSVQQNFDTLIAAGVRLALDDFGTGYAALTLLARFPFEEVKIDQWMTSRLDQARFRDAVVLAFESAERYGAKLVTEGIETEEQCRILMQMGIRFGQGYLYSPAVPLDRLLPRRAYA | failed
MMENPQQGLEMRSIVVAYYREQAVSTLVKTLIFIVTLLFIGRSFSEEKNYDMQQLSAQQAYENGRLLRAQFKNLAAREYLKYAADLGEPNAAYLYAMEVANYRTTIRTPPESQHYLLLAAQGGSRQAMRVLYQNGEWLRAAERSLWQQTYYDTLIELGSREPSQAAYELALFHQKDNPKLAQHYLTIAVEFEHPAALMLMAQQIEQGEGSYPMPGSRATEARKTYLKAAQTGYIPAIRNYIQLLENKGKYQDAYYWRQQAVQRGDLTSLVAMGGILSGQSEFYRFVEPDLKQAKAYFNRYLEVAGSDRLSHVYQNSQKQLLDISMQLNGHEKEIAEKIELQLENYQPFFNHDAYWDN | failed
MMERFDISAQDLKSFGFTTLFCIVIALATMSIWGGLFGEHLAISFSYGYSAFFSAQWIARRWPELSKRLVNILSLSCAVVLGTSSAYLWLRHYPGFDEFSAYKPIIFLGFIFSAVCFLYFYSHEQKILAQGALEAARRRQSEQEKALLLSQLKQLQSQMEPHFLFNTLANINALIAVEPYKAQLMLEKLTELLRGTMRLRRTNTGDLREEMQLIDAYLGIQKIRLGERLEYTLPELSELGTLGMPPMLIQPLVENAVSHGIEPKAEGGTIRVRIEVADDWFELSVEDNGMGLSDTPKGNGIALQNVRDRLSGLFGHEGLLTVAQNCSGGVTATLRIRLHHLQGLQRSFYDYSQARSPQS | failed
MMFGAIIQQIVLGISLAAPVGPINIEMLKRGIERGFWHAWVVGIGGMTADILFMLLIYFGLSSLFMYTYVQAFMYCTGFFLLFYLGFQSVKQGISQSNMEYKKEEVGGLKQSFMAGFLIAISNPLNLVFWFGIYGSTLSSLLTKVTKQEAFLYSLCIIVGIILWNVNIAFSVHFGRTLLKQKALGYITAGAGIILVGYSIHFAYKALQLFT | failed
MMFHEGTNVAGNAELIPIRLFGTPRCEAVRDAFFPSKGFALTAALILAPNQSLSRQYAASLLWENVEQKRALGNLRQLILRLQKLPSEDDAILLTEGNDLKAGALAQRTDLAIFLAGARAEDPMRRLNALLEFGGDLLEGLEAGQDHLYLWLLSERRRLKDLFFSSYTQLLEELTRFGRASSNDIARLAECACKIEPEREETYRAAMAAYARVGNISACEGMYQLLMEQLRQEDRSPEAETVALKRRIQSLAATIAGPVEPEEGSRRQVLAKPRVAFVRPARVDGQPVPTVIHAFVEDVANSLVRYRTFTVLSPHSTFALAHDRVDDSYAMLRADYRIISTVFDDSRMSVALIEDASGEIVWSLEAVLTERHIHAAFRLLSKQVAAALAREIERLQVEPDRNHSGEAYRQLLEGQQLLRGKCDLPLLRRARSLFRKAVDLDHSLAVARARVAQSLQLEWLMLGGNDPHLLHRAKAEADASVEIDPALGVGHWMCAVVALYQRDFDISAEKFFEAEALAPNSADLLLQHADALAHFGDAEIAWDKFQQAINLNPLAPDIYWWAGASIAFKRQDYGTAVELCGRMENDEPALRVLTASHALHGDLLAARESGSRLQENYPGMTAREISSLSPDRDPIANERFYHALRLAGIK | failed
MMFNYIYTTFLTILYTVVMSLSLSLYLKEREKNYLLVSLYFLLLILNGLIVTMSETFQIFANDYNQQFMVNPIIETIYYLATFGIALKLVTELFEEKITTYQYGIYIVFALWLIVVPFMANSALKVWLYYFPSQLLTVYLGIYLLIHNRKMIPKSSLGKYVKLIGSLAIFFGLAIVVEDTFIIYFRDIYHTNMLKIHNRNVSEDIFHISLCLIAIKYFLTNYQKSNEEVAVIDIRNEKKETNDSVSNFEEDEYYFERFMDKYGITQREGEILELLLQRKHNQEIANQLYLSLGTVKTHTHNIFIKLQVEKRSEVCEVWEAFEKSELTQ | failed
MMGDSVIYYVEQADEPVNRADERARKTFKYFWRELFWERRRIISALDFAMVKVPFFQDGEDGEICEHMWIDDIYFDGLYIYGVLNNEPGELTNVEQGESVCVPVDDISDWMFVCNGIPYGGFTIQAMRGQMTEEERTEHDAAWGIDFGDPGQILLVYEEKEHPENLEEHPMCRNCIDDFRQQLSQNSDYLREQDEDGYTPLHHEAIAGNALMVQAMLEYGANPASTTSEGYTALDFACLTGWQNVADLLEPRH | failed

Source: a protein production outcome set (Wang et al. 2014)
